B1: Histone-lysine N-methyltransferase PRDM16 (Homo sapiens), Q9HAZ2-4 (parent)
chain: MCQISEQIYYKVIKDIEPGEELLVHVKEGVYPLGTVPPGLDEEPTFRCDECDELFQSKLDLRRHKKYTCGSVGAALYEGLAEELKPEGLGGGSGQAHECKDCERMFPNKYSLEQHMVIHTEEREYKCDQCPKAFNWKSNLIRHQMSHDSGKRFECENCVKVFTDPSNLQRHIRSQHVGARAHACPDCGKTFATSSGLKQHKHIHSTVKPFICEVCHKSYTQFSNLCRHKRMHADCRTQIKCKDCGQMFSTTSSLNKHRRFCEGKNHYTPGGIFAPGLPLTPSPMMDKAKPSPSLNHASLGFNEYFPSRPHPGSLPFSTAPPTFPALTPGFPGIFPPSLYPRPPLLPPTSLLKSPLNHTQDAKLPSPLGNPALPLVSAVSNSSQGTTAAAGPEEKFESRLEDSCVEKLKTRSSDMSDGSDFEDVNTTTGTDLDTTTGTGSDLDSDVDSDPDKDKGKGKSAEGQPKFGGGLAPPGAPNSVAEVPVFYSQHSFFPPPDEQLLTATGAAGDSIKAIASIAEKYFGPGFMGMQEKKLGSLPYHSAFPFQFLPNFPHSLYPFTDRALAHNLLVKAEPKSPRDALKVGGPSAECPFDLTTKPKDVKPILPMPKGPSAPASGEEQPLDLSIGSRARASQNGGGREPRKNHVYGERKLGAGEGLPQVCPARMPQQPPLHYAKPSPFFMDPIYSRVEKRKVTDPVGALKEKYLRPSPLLFHPQMSAIETMTEKLESFAAMKADSGSSLQPLPHHPFNFRSPPPTLSDPILRKGKERYTCRYCGKIFPRSANLTRHLRTHTGEQPYRCKYCDRSFSISSNLQRHVRNIHNKEKPFKCHLCNRCFGQQTNLDRHLKKHEHENAPVSQHPGVLTNHLGTSASSPTSESDNHALLDEKEDSYFSEIRNFIANSEMNQASTRTEKRADMQIVDGSAQCPGLASEKQEDVEEEDDDDLEEDDEDSLAGKSQDDTVSPAPEPQAAYEDEEDEEPAASLAVGFDHTRRCAEDHEGGLLALEPMPTFGKGLDLRRAAEEAFEVKDVLNSTLDSEALKHTLCRQAKNQAYAMMLSLSEDTPLHTPSQGSLDAWLKVTGATSESGAFHPINHL

Key:
[1] = variants of: B1; details: with ctbp2_mouse Ctbp2, P56546
[2] = variants of: B1; details: with ctbp2_mouse Ctbp2, P56546; remark: listed apart in the source
[3] = variants of: B1; details: with hdac2_chick HDAC2, P56519
hdac2_chick HDAC2, P56519, sequence (P56519 whole entry): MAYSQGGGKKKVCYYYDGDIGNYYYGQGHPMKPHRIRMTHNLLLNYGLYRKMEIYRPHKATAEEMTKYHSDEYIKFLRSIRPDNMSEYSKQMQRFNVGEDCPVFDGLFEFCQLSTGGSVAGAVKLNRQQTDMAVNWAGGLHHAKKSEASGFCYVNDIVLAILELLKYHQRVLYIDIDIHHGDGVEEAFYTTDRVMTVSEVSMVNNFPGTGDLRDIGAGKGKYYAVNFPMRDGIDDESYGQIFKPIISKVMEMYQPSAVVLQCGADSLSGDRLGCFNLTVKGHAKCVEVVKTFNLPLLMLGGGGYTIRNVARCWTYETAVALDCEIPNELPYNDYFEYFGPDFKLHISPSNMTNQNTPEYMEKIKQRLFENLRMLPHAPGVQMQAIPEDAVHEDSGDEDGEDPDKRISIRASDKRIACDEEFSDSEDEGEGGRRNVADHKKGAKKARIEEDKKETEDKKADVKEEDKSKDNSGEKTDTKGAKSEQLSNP

ctbp2_mouse Ctbp2, P56546, sequence (P56546 whole entry): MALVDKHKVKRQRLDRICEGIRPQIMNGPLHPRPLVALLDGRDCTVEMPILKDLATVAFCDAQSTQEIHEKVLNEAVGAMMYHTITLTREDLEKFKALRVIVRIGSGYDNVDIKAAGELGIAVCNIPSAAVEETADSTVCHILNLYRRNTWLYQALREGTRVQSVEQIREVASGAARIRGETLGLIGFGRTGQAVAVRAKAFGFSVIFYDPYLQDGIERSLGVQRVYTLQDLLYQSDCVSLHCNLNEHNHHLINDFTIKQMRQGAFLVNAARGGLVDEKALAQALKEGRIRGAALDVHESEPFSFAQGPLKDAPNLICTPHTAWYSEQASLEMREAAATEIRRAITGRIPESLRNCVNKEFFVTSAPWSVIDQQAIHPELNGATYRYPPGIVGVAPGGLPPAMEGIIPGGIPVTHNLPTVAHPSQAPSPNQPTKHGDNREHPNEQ

Row | Variant | effect of a mutation on the interaction [1] | effect of a mutation on the interaction [2] | effect of a mutation on the interaction [3]
1 | D590A;L591S;D620A;L621S | disrupting interaction | disrupting interaction | decreasing interaction
2 | K568R |  |  | decreasing interaction
3 | K568R;D590A;L591S;L619S;D620A |  |  | decreasing interaction

— IntAct's records for PubMed 21516122
